The results in this text go back to paper PMC6044281, “Cooperative Domain Formation by Homologous Motifs in HOIL-1L and SHARPIN Plays A Crucial Role in LUBAC Stabilization” (Cell reports, 2018).

To fix the notation:
B1: mSHARPIN_(163–301) [mouse] / GST-mHOIP_(466–630) [mouse] (parent)
chain 1: SSGNFKKEELATRLSQAIAGGDEKAAAQVAAVLAQHHVALNVQLMEAWFPPGPIRLQVTVEDATSVLSSSSSAHVSLKIHPHCSIAALQDQVFSEFGFPPAVQRWVIGRCLCMPERSLASYGVSQDGDPAFLYLLSAPR
chain 2: SCGDPEKQRQDKMRKEGLQLVSMIQEGETAGASPEEVFSALQYSGTEVPLQWLRSELSYVLEMVAELAGQQDPELGAFSCQEARKAWLDRHGNLDEAVEECVRARRRKVHELQSLGFGPKEGSLQALFQHGGDVARALTELQRQRLEPFHQRLWDRDPEPTPCWD

The variants in the assay derive from B1. As to the kind of experiment: SPR. The note with it: with GST-mHOIP_(466–630) [mouse]; response read at end of injection (about 185 s); GST-mHOIP D-UBA WT immobilized with anti-GST antibody; parent: 20; read off a plot.
As for chain 1 L14A I18A, the response was -20 RU.
